Results as given in the DeepSol protein solubility set.

experiment: soluble on expression in E. coli; label from the status in PepcDB or PDB records

Row | Sequence | soluble on expression in E. coli
1 | MTLPPDAPSRHRLVHALERTADLLDILGGEDFKSRAYRSAARSLEELNEETPELLAREFTGIPKVGKGIAAELSDFARSGTFAPLEAAAGQLPPGLLDLLGVRGLGPKKIRSLWLAGIDSLERLREAAESGELAGLKGFGAKSAATILENVVFLFEARQRQSLRAGLAVAEELAGALTDLSPAPAGDVRRGLETVRAAELTVTGTPDDVLARLPELTVQGDGVLSGDYEGVPVEIACAPAEARGALDLLRSGEHFAGQVQAAAQARGFTLTAGGLSRGDEVLPTPTEAVVFHALDLPFRPAEYREPEHDDLWQTLPDPAELVTVGDLRGMIHTHSTWSDGGASIREMAEATLTLGHEFLGTADHSRAAYYANGLTIERLREQLKEIRELQRAGLPIVAGSEVDILDDGSLDFPDDVLGELDYVVVSVHSNFTLDAARQTERLIRAVSHPLVTVLGHATGRLLLRRPGYALDLDAVLGACEANGTVVEINANAARLDLDWREALRWRERLKFAINTDAHVPGGLRDARYGVMQARKAGLTPAHVVNSLGRAEFLDFVARQRAARGAPGPADRAHHHHHH | soluble
2 | MTLPPVGSTLYSKGTHNYKGLFKECATVGSTLYSKGTHNDADNVPVLRLVGSTLYSKGTHNSRLARPPTRLVGSTLYSKGTHNMILDWWLGRWNVQ | not soluble
3 | MTLRYEIFPVTPFRQNCTLIWDDESGEAVLTDVGGDVPFLLQALANRKLTLTAIWLTHGHLDHAGGVVEMLKTHKVPVLGPHPDDEFLLQSLPQTTAQYGFPVSPAFAPNRWLEEGETLTVGRYAFQVLHIPGHTPGHIVFYCAEAELLIAGDVLFYETIGRTDFPRGNHADLINNIRNKLFTLPETVQVVAGHGRMTSIGHEKRHNPFF | not soluble
4 | MTLSRVSEMALSPDGKTAVYAVSFPDVKTNKATRELFTVNLDGSGRKQITDTESNEYAPAWMADGKRIAFMSNEGGSMQLWVMNADGTERRQLSNIEGGITGFLFSPDEKQVLFTKDIKFGKRTKDIYPDLDKATGRIITDLMYKHWDEWVETIPHPFIANATDGMITTGKDIMEGEPYEAPMKPWSGIEDFSWSPDGQNIAYASRKKTGMAYSLSTNSDIYIYNLASGRTHNISEGMMGYDTYPKFSPDGKSIAWISMERDGYESDLKRLFVADLATGKRTHVNPTFDYNVDMIQWAPDSKGIYFLACKEAETNLWEITLKTGKIRQITQGQHDYADFSVRNDVMLAKRHSFELPDDLYRVNLKNGAAQAVTAENKVILDRLTPITCEKRWMKTTDGGNMLTWVVLPPNFDKNKKYPAILYCQGGPQNTVSQFWSFRWNLRLMAEQGYIVIAPNRHGVPGFGQKWNEQISGDYGGQNMRDYLTAVDEMKKEPYVDGDRIGAVGASYGGFSVYWLAGHHDKRFAAFIAHAGIFNLEMQYATTEEMWFANWDIGGPFWEKDNVVAQRTYATSPHKFVQNWDTPILMIHGELDFRILASQAMAAFDAAQLRGVPSEMLIYPDENHWVLQPQNALLFHRTFFGWLDRWLKK | not soluble
5 | MTLTEQPQRIAILHSLYLEYFLALGTPPIASAGASTGDAMKALGEWETLKPYAGTAKIIDLGSARDLNLEAILGANPDVIVTFKGQGNLDKIYEQLEQIAPVILVDFSAPWQEQILACAEIVNKEADAQKLIKEIEDSVQSAKEKLSRLEHHHHHH | not soluble
6 | MTLVGECLSPHVTMAQRDHIRLEWRMPYRVLERTRQVAWTCFCRASVYELCEGGGQAFLRRTVQLDGKPTAHETSPCSISEARVIWTALLSGRAR | not soluble
7 | MTMRFSVLASGSTGNAFYIETDRQRLLVDAGLSGKQLEELFAEIGRHPKQLDALLVTHEHSDHIKGLGVLARKYRLPVYANEKTWRAMEQAVGDIPPEQKFVFPLGAVRTFGDVDVESFGVSHDAAEPMFYVFHYEGKKLALLTDTGYVSERIKKTIENADVFVFESNHDVGMLRMGRYPWSVKRRILSDVGHISNEEAGLALADVIGDRTKQIYLAHLSQDNNMKELARMTVTQVLEQKGLAVGARFRLYDTDPRRATALAYV | not soluble
8 | MTNKREDVRNIAIIAHVDHGKTTLVDELLKQSGIFRENEHVDERAMDSNDIERERGITILAKNTAVDYKGTRINILDTPGHADFGGEVERIMKMVDGVVLVVDAYEGTMPQTRFVLKKALEQNLKPVVVVNKIDKPSARPEGVVDEVLDLFIELEANDEQLEFPVVYASAVNGTASLDPEKQDDNLQSLYETIIDYVPAPIDNSDEPLQFQVALLDYNDYVGRIGIGRVFRGKMRVGDNVSLIKLDGTVKNFRVTKIFGYFGLKRLEIEEAQAGDLIAVSGMEDINVGETVTPHDHQEALPVLRIDEPTLEMTFKVNNSPFAGREGDFVTARQIQERLNQQLETDVSLKVSNTDSPDTWVVAGRGELHLSILIENMRREGYELQVSKPQVIIKEIDGVMCEPFERVQCEVPQENAGAVIESLGARKGEMVDMTTTDNGLTRLIFNVPARGMIGYTTEFMSMTRGYGIINHTFEEFRPRIKAQIGGRRNGALISMDQGSASTYAILGLEDRGVNFMEPGTEVYEGMIVGEHNRENDLTVNITKTKHQTNVRSATKDQTQTMNRPRILTLEEALQFINDDELVVVTPESIRLRKKILNKNVREKEAKRIKQMMQENE | not soluble
9 | MTPAELKRLYHIIKVQLEYGLDELLPDHQLTKAPLLMRKSLFWIKNQHPEKPLGERLRLALQELGPVWIKFGQMMSTRRDLFPPHIADPLALLQDQVAPFDGELAKQQMEKALGGPLENWFTEFDIKPLEHHHHHH | not soluble
10 | MTPDELARLTGYSRQTINKWVRKEGWTTSPKPGVQGGKARLVHVNEQVREYIRNAERPEGQGEAPALSGDAPLEVLLVTLAKEMTPVEQKQFTSLLLREGIIGLLQRLGIRDSK | not soluble
11 | MTPDWFAVVDATWPAADSRTDGTLTLREGRGGGKRVSAASASGAVSEPQIEAAEAAMRQMGQPPLFQLRPGDEGLDAALAGRGYSIVDPVNIYACPVSQLTDLPMPRVTVFALWEPLAIMRELWAEGGIGPGRLAVMDRVKGPKTGLLMRHQDKPGGVAFVAIHDGVAMLHALEIPPHQRRKGLGKWAMRGAAFWALDNGAHTLSVICTKANEGANALYRSLGMQLVGEYHYRLLQEERQTA | not soluble
12 | MTPRSLVRIVGVVVATTLALVSAPAGGRAAHADPCSDIAVVFARGTHQASGLGDVGEAFVDSLTSQVGGRSIGVYAVNYPASDDYRASASNGSDDASAHIQRTVASCPNTRIVLGGYSQGATVIDLSTSAMPPAVADHVAAVALFGEPSSGFSSMLWGGGSLPTIGPLYSSKTINLCAPDDPICTGGGNIMAHVSYVQSGMTSQAATFAANRLDHAG | not soluble
13 | MTQELGPLARTLSMPYYDDALPAHDQFHAKRVRDIALRLAGDCNGSVDRDVLAASAWLHDIGRPRERAGEIDDHDDWATAEAAQLLAAEGVKPDRIGRIKHCIQAHSIRTSSPEPRTLEAKLLFDADKLDAAGARGLVRLACIVGERSGRTGEKYAVIDDTSATDLGTSNSPDIELLRDWAQERLDTLYTQPGRRLGQTRREFMDEFFTHFAGEIGASGEWLEHHHHHH | not soluble
14 | MTQNINQLAVNTIRTLSIDAINAANSGHPGLPMGAAPMAYALWANHLNHNPNHPKWFNRDRFVLSAGHGSSLLYSLLHLAGYDVSIDDLKNFRKLNSKTPGHPEFGHTSGVEATTGPLGQGIANAVGMAMAEAHLAAKFNKDGHSIIDHNTYALVGDGDLMEGVAYEAMSMEGVAYEAMSMAGHMKLGKLIVLYDSNEISLDGELNIAFSEDMQKRVESAHWQYVRVEDGNDVDAITKAIQLAKDNTDQPTLIEIRTVIGYGSPKVAGTNKAHGNPLGLEEATATKQVYGWHYEEDFFVPEEVTAHFNELKQKGIEKERGWNEQFNLYRESNPALADELEKAIIGEVLIEAKDILSFDSEKTISTRVASGEAINHYVKSIPSIFGGSADLSHSTMTDIKGEAVYAVESYAGRNIYFGVREHAMGAAANGLALHGGVKPFVSTFFVFNDYLRPSIRLAALQKLPVTYVFTHDSIAVGEDGPTHEPIEHLAALRAIPGLTVIRPSDANETASAWAYALQQTEGPVVLVLSRQNLPVFHETKANIENLSKGAYVLTQTNENPDVILIATGSEVSLAASAKAKLEEDNVSVRIVAMPSWELFDRQSKEYKESVLPSSVTKRVSLEMGVSLGWERYVGQEGNILSIETFGASGTGAEVMNLFGFTTENVVQITKNVLNS | not soluble
15 | MTQTFADQKRKTVETAEFTEDGRYKRKVRSFVLRTGRLSEFQRNMMNDNWGTLGLDYQTEPFDFAKIYGNDNPVVLEIGFGMGKSLVDMAFANPDKNYLGIEVHTPGVGACIAYAVEKGVTNLRVICHDATEILRDSIADGALGGLQLFFPDPWHKAKHHKRRIVQPHFVTQVIQKLGENGFIHMATDWENYAEQMLEVLSANTDLVNTSKNGDYIPRPDFRPLTKFEARGYKLGHGVWDLYFVKK | not soluble
16 | MTQVYDGFVHLGFSNRNGRTISHKKYQEGNSRVSADNSDANGVPYYFLINMGGGFVEGEQYQVTIDVNKDAHALVTTQTPTYVYKCEKGQLTQQNTSITLEENSYLEYMADEVIPYLKSRYFQTSRIDMDKSAHLIYSDGVTAGWSHEDLPFQYHYFRNLTQIYQDNELVYSDQTLLEPEKQDMFKLGYFEGWRNYNSLVMVSPNIDEAFVKALQKHLEGLNLESDFAISSLDISGLVLRILGKTAEDNRRIIYSCADYFRQEIHGLTPLNLRKNDMRRLEHHHHHH | soluble
17 | MTRACNLYVFKNKYVSFNLLDSPNSNPKLLKISLPFNFMDEFEGLLKAVGSAPWYKLIGMVPKLQGDRVVVEMEIDRSKHLQALGTTHGGAIASVLDSAIGLNVNREVVKMGKTAVTAQLNIHYIRPVTEGKIVGVGMPMHIGSKVTVGYGEVRNEEGELVAAGTATFYIIDRRFRDLEHHHHHH | not soluble
18 | MTRLPDIKKEVRFNAPIEKVWEAVSTSEGLAFWFMENDLKAETGHHFHLQSPFGPSPCQVTDVERPIKLSFTWDTDGWSVTFHLKEEENGTIFTIVHSGWKQGDTKVEKAGAESAVVHERMDRGWHDLVNERLRQIVELEHHHHHH | soluble
19 | MTRPNDEGDVSSLAYKYETIADSLRQDIKSGKYTPGELMPDQNKLAETFDTTRITIHKAIQLLIIEGMVYSKRGAGTFVRKDFGLTERRQETLVDKPLGTTQTNAGKKVTSKVLELQARLPTKREAEQLLIDEMDPVYVIRRTRYVDGKVWAYEHTIMPTSIVTLTKQVLEGSVYGYLEQHSGKKIAGSHRIISAARVTADDVAAMGATLNDPVLVINQISYMDDGQPFEVSESHFPYETSTVVADVQIH | not soluble
20 | MTRQFLEFEQPIEELNQKIEALRMVGSDNEVNLSEEIARLEAKCSELTENIFSRLEPWQIAQMARHPLRPQTTDYIERIFTDFQELHGDRSYSSAPAIIGGMARLNGEPVMVLGHQKGKRTKEKVYRNFGMARPEEYRKALRLMRMAEKFKMPVVTFIDTAGAYPGIGAEERNQSEAIARNLFAMSRIKTPIVCIVTGEAGSGGALAIGVGDKIIMLQFSIYSVISPEGCASILWKDASKASEAARAMGITADRIFENELVDMVVPEPLGGAHRDVDEMASRLKRLLTSELQALKKVPLDQLIELRYQKFMAMGACD | not soluble
21 | MTRQMILAVGQQGPIARAETREQVVGRLLDMLTNAASRGVNFIVFPELALTTFFPRWHFTDEAELDSFYETEMPGPVVRPLFETAAELGIGFNLGYAELVVEGGVKRRFNTSILVDKSGKIVGKYRKIHLPGHKEYEAYRPFQHLEKRYFEPGDLGFPVYDVDAAKMGMFICNDRRWPETWRVMGLKGAEIICGGYNTPTHNPPVPQHDHLTSFHHLLSMQAGSYQNGAWSAAAGKVGMEEGCMLLGHSCIVAPTGEIVALTTTLEDEVITAALDLDRCRELREHIFNFKAHRQPQHYGLICEF | soluble
